The record followed here is patent US20130177660A1 (NATIONAL UNIVERSITY CORPORATION NAGOYA UNIVERSITY, published 2013).

The experiment addresses T1, Flag-RFP (Flag-tagged RET finger protein) (Homo sapiens, UniProt P14373 1-513).
T1 construct: Expressed by transient transfection in HEK293 cells and tested in cell lysates by co-immunoprecipitation; also called TRIM27; pFlag-RFP; not shown: Flag tag from the pFlag vector
T1 sequence: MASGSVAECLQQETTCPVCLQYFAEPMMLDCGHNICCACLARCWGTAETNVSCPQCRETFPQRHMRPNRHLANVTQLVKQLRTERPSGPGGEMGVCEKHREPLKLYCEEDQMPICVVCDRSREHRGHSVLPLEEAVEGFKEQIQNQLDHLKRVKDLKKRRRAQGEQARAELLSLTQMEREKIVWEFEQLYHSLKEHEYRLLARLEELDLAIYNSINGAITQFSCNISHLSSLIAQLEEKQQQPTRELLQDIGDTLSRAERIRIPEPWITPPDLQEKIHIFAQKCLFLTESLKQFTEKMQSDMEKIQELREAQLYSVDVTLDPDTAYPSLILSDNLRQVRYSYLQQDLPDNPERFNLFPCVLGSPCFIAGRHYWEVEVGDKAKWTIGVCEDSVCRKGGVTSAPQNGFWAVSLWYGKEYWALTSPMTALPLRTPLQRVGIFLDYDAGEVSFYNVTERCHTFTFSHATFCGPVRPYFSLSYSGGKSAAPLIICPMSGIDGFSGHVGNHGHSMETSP
The experiment in a line: co-IP from HEK293 cells co-transfected with GFP-RFP and Flag-RFP; anti-Flag IP, anti-GFP blot. The text has this: FIG. 7 RFP Oligomerization (a) RFP forms homo-oligomer, HEK293 cells were co-transfected with GFP-RFP and Flag-RFP, and immunoprecipitated with anti-Flag antibody followed by immunoblotting with anti-Flag and anti-GFP antibodies. Anti-HA antibody was used as mock. WCL: whole cell lysates. (b) Ring-B-box and Coiled-coil domains, but not Rfp domain, of RFP were required for its oligomerization. HEK293 cells were co-transfected with GFP-RFP and Flag tagged RFP deletion constructs, and immunoprecipitated with anti-Flag antibody. The pFlag vector was used as control. Arrow heads indicate Flag-tagged RFP constructs.

B1: GFP-RFP (other)
chain: MASGSVAECLQQETTCPVCLQYFAEPMMLDCGHNICCACLARCWGTAETNVSCPQCRETFPQRHMRPNRHLANVTQLVKQLRTERPSGPGGEMGVCEKHREPLKLYCEEDQMPICVVCDRSREHRGHSVLPLEEAVEGFKEQIQNQLDHLKRVKDLKKRRRAQGEQARAELLSLTQMEREKIVWEFEQLYHSLKEHEYRLLARLEELDLAIYNSINGAITQFSCNISHLSSLIAQLEEKQQQPTRELLQDIGDTLSRAERIRIPEPWITPPDLQEKIHIFAQKCLFLTESLKQFTEKMQSDMEKIQELREAQLYSVDVTLDPDTAYPSLILSDNLRQVRYSYLQQDLPDNPERFNLFPCVLGSPCFIAGRHYWEVEVGDKAKWTIGVCEDSVCRKGGVTSAPQNGFWAVSLWYGKEYWALTSPMTALPLRTPLQRVGIFLDYDAGEVSFYNVTERCHTFTFSHATFCGPVRPYFSLSYSGGKSAAPLIICPMSGIDGFSGHVGNHGHSMETSP
notes: RFP cDNA inserted into the pEGFP-C1 vector; also called RFP in pEGFP-C1; not shown: GFP (EGFP of the pEGFP-C1 vector) and linker
As to B1, the binding result is on record as “binds”.
